Laboratory results: the DeepSol protein solubility set

Experiment: soluble on expression in E. coli; label from the status in PepcDB or PDB records

Sequence: MGSDKIHHHHHHMPLKTPPCVRRHTTGHETCSAQRSEHDGRRHLFPHDARALEIQERDVTHPIVSSEVPVEYINLPEPQTEGGMPLMTALHKRRSVRSFAQRPLDEALLSTLLWAAFGINRPDTGLRTAPSARNWQEIDVYVAMPDGLYALEPAAWRLRLVTGEDLRAATGLQDYVSTAPLDLVYVSRLSKLDETDKPMRQFYTALDTGYISQNVYLFCAASGLATVARGLLDRRALAKAMRLDPDQRVVLAQSVGFPA
- soluble on expression in E. coli: not soluble

Sequence: GPGSAEKKQKQHFYLTQEMPPRRDPERQRAKVAAATMAPSEHKKASLPPAKLRLNLGPFLPQKKKNRPPKTTEIDWGSEQTPRLQCSWHPQRRNGIVSFPVMMSYPVSCHCAAWGCHITRAYPTMTRQGAHRLASPKVGRPRRSTRKPDQK
- soluble on expression in E. coli: soluble

Sequence: MKAKTLIDAYEAFCPLDLSMEGDVKGLQMGSLDKDIRKVMITLDIRESTVAEAIKNEVDLIITKHAPIFKPLKDLVSSPQRDILLDLVKHDISVYVSHTNIDIVPGGLNDWFCDLLEIKEATYLSETKEGFGIGRIGTVKEQALEELASKVKRVFDLDTVRLIRYDKENPLISKIAICGGSGGEFYQDAVQKGADVYITGDIYYHTAQEMLTEGLFAVDPGHHIEVLFTEKLKEKLQGWKEENGWDVSIISSKASTNPFSHL
- soluble on expression in E. coli: not soluble

Sequence: ANVEIYTKETCPYCHRAKALLSSKGVSFQELPIDGNAAKREEMIKRSGRTTVPQIFIDAQHIGGYDDLYALDARGGLDPLLK
- soluble on expression in E. coli: soluble

Sequence: ETQQRCVTATDYDTFVSERFGSIIQAVQTFTDSTKPGYAFIAAKPKSGLYLTTVQREDIKNYLKDYNLAPITPSIISPNYLFIKTNLKVTYALNKLQESEQWLEGQIIDKIDRYYTEDVEIFNSSFAKSKMLTYVDDADHSVIGSSATIQMVREVQNFYKTPEAGIKYNNQIKDRSMESNTFSFNSGRKVVNPDTGLEEDVLYDVRIVSTDRDSKGIGKVIIGPFASGDVTENENIQPYTGNDFNKLANSDGRDKYYVIGEINYPADVIYWNIAKINLTSEKFEVQTIELYSDPTDDVIFTRDGSLIVFENDLRPQYLTIDLEPISQLEHHHHHH
- soluble on expression in E. coli: soluble

Sequence: MAHHHHHHMSTIYNAVDASTLNDRCRTDLLDTVAQLGRHCETLPKKAVTTADAPLPSCTFNTTVSRSQKEINCSNEAALDKYIEEKGATRWRTTQALASTYFKDHKPKFHGALRTQDCFRDTRDITQLSSKEKDFVHRYAEAKMKKSIPREESDDVAKKVATEAYTEAFRKFKGRDPTEKELLEVERLYFAYADDGAVGVVQKPHFHGPHMHVSICNRKYVTCPNQVYRASLPAVRNARSRFPGPIPVWTSTKNLHAVVSNDTYRPGVHNVSKFGETSSK
- soluble on expression in E. coli: not soluble

Sequence: MDGAGAEEVLAPLRLAVRQQGDLVRKLKEDKAPQVDVDKAVAELKARKRVLEAKELALQPKDDIVDRAKMEDTLKRRFFYDQAFAIYGGVSGLYDFGPVGCALKNNIIQTWRQHFIQEEQILEIDCTMLTPEPVLKTSGHVDKFADFMVKDVKNGECFRADHLLKAHLQKLMSDKKCSVEKKSEMESVLAQLDNYGQQELADLFVNYNVKSPITGNDLSPPVSFNLMFKTFIGPGGNMPGYLRPETAQGIFLNFKRLLEFNQGKLPFAAAQIGNSFRNEISPRSGLIRVREFTMAEIEHFVDPSEKDHPKFQNVADLHLYLYSAKAQVSGQSARKMRLGDAVEQGVINNTVLGYFIGRIYLYLTKVGISPDKLRFRQHMENEMAHYACDCWDAESKTSYGWIEIVGCADRSCYDLSCHARATKVPLVAEKPLKEPKTVNVVQFEPSKGAIGKAYKKDAKLVMEYLAICDECYITEMEMLLNEKGEFTIETEGKTFQLTKDMINVKRFQKTLYVEEVVPNVIEPSFGLGRIMYTVFEHTFHVREGDEQRTFFSFPAVVAPFKCSVLPLSQNQEFMPFVKELSEALTRHGVSHKVDDSSGSIGRRYARTDEIGVAFGVTIDFDTVNKTPHTATLRDRDSMRQIRAEISELPSIVQDLANGNITWADVEARYPLFEGQETGKKETIEELEHHHHHH
- soluble on expression in E. coli: soluble

Sequence: MGSDKIHHHHHHMPEFRKDPIIKRWVIIATERAKRPHDFARTKVEEVREGFCPFDYGNEHTTPPEIFAFRPADTEPNTPGWWVRVVPNKFPAVDPNAPLRKYGRGMYDAAMGFGYHDVVVETPDHNSHLAVMDYKNVEEVIWAYKIRYEQLMKDERIKYILIFKNHGRDAGASLSHPHSQIIALPIMPKRVQEELDGSKEYYEYKERCPFCDIIDEEKRERERIVEENDHFIALEPFAARFPFETWILPKRHMNSFHLISEDEVGSLAKILKNVLYRIYAALDNPPYNLLIHTAPTSLEGKDYYHWHIEIFPRLTKVAGFEWGTGFYINTVPPEDAARYLREVSLEQV
- soluble on expression in E. coli: not soluble

Sequence: MLILVSPAKTLDFEQPPLTQIHTRPDFLAQSQELIQVCQQLTPSDIATLMKVSDSIAGLNAARFGEWKPDYSIDNAKQAIFAFRGDVYTGFDADTLTAAQLERTQSQLRILSGLYGLLRPLDLILPYRLEMGTALTNQKGKNLYEFWGNTLTDAVNSAVAAQGDGIIINLASNEYFKAIKPKFLNGQLITPVFKDFKNGQYKVISFFAKRARGMMARYIIDQQVSSIDGLKAFEVDGYYYSEELSKPNEPTFLREAQ
- soluble on expression in E. coli: soluble

Sequence: MKVPRLIVAGTESGAGKTTITISIILKLLANQMKVKPYKIGPDYIDPQFHRLASGVPSENLDLWMMNDDQIRYLLIEGSREFDISVIEGVMGLFDGAGSDFTGSTYDLARRTGTPIVLVIDGYGISATAAAIVSGIKAYAGELLRGVIVTRVSGESHYRLIRDAVEEKTGVPVLGYMIRNEKAVLESRHLGLVQAYEIDEIREIFGAIDSSTVIDMHQIIDIARSADKLETLYSPEIERLGTFKVSVAMDSAFDFYYEENLRMLKRMGASIRYFSPMGNEVPDADSDLIYLGGGYPEVFAGKLQSATDTIEAIRHAASIGTGVYAECGGYMFLCRSLESTDGHIYGGVGIIPASVYMDASLVIGYREISAKRDTSILRAGETARGHEFHKSRIRFDGPYDHPFVLKSRSSSFEDGFSSGSVTATYAHIHFLSNPRVAENLLIALEHHHHHH
- soluble on expression in E. coli: not soluble

Sequence: PLSQVVRFHASSGTTGKPTVVGYTANDIRNWVESLCRALVSCGVSSDDIMQIAYGYGLFTGGLGFHYAAERLGATVLPISAGNTARQIELMKDLGSTVMACTPSYMIYLAEYASQMGVDIAEDTNLRAGIFGAEPWSEETRKRIEDKTGITAYDVYGTSELSGPLFTECTER
- soluble on expression in E. coli: not soluble

Sequence: MGLRDRFSNYLFKKAEKRGYLDNVLGKSIRYSGVYVTDSNILQSSDVYELLQDISNQMVLADIVVEDEFGNEIKDDIALQILRNPNNYLTQSEFIKLMTNTYLLEGETFPILNGAQIHLASNVFTELDDNLVEHFNIGGHEIPPCMIRHVKNIGADHLRGKGILDLGRDTLEGVMSAEKTLTDKYKKGGLLTFLLNLDAHINPQNGAQSKLINAILDQLESIDEARSVKMIPLGKGYSIDTLKSPLDDEKTLAYLNVYKKDLGKFLGINVDTYTELIKEDIEKAMMYIHNKAVRPIMKNFEDHLSLLFYAQNSGKRIKFKINILDFVTYSNKTNIGYNLVRTAITSPDNVADMLGFPKQNTKESQAIYISNDVTEIGKKEATDGSLGGGEENEN
- soluble on expression in E. coli: not soluble

Sequence: TARELLDADRGRDSMVAAAYHSGTLSGKTVTEAARQGDVFAIEVFDDFAEWMGRALSIVCDVLDPGQIVIGGGLSTSSDLFLEKATQHMAQQIVGAGYRPLPTVVCAELGGDAGMIGVSDLARRRV
- soluble on expression in E. coli: not soluble

Sequence: MATLKDIAIEAGVSLATVSRVLNDDPTLNVKEETKHRILEIAEKLEYKTSSARKLQTGAVNQHHILAIYSYQQELEINDPYYLAIRHGIETQCEKLGIELTNCYEHSGLPDIKNVTGILIVGKPTPALRAAASALTDNICFIDFHEPGSGYDAVDIDLARISKEIIDFYINQGVNRIGFIGGEDEPGKADIREVAFAEYGRLKQVVREEDIWRGGFSSSSGYELAKQMLAREDYPKALFVASDSIAIGVLRAIHERGLNIPQDISLISVNDIPTARFTFPPLSTVRIHSEMMGSQGVNLVYEKARDGRALPLLVFVPSKLKLRGTTR
- soluble on expression in E. coli: soluble

Sequence: KPAPSAEHSYAEGEGLVKVFDNAPAEFTIFAVDTKGVARTDGGDPFEVAINGPDGLVVDAKVTDNNDGTYGVVYDAPVEGNYNVNVTLRGNPIKNMPIDVKCIEGANGEDSSFGSFTFTVAAKNKKGEVKTYGGDKFEVSITGPAEEITLDAIDNQDGTYTAAYSLVGNGRFSTGVKLNGKHIEGSPFKQVLGNPGKKNPEVKSFTTTRTAN
- soluble on expression in E. coli: soluble

Sequence: GMARKRLIIEMGMGIDQHGQEPTIAASRAVRNAIAHNALPGVWEVAGLSHPNEMIIEVQVAVPYPEQVREEEVLAVLPFGRKTLTVESGGMIVQGRAIPELNDKNDEMLIAIAAVTVLIENE
- soluble on expression in E. coli: soluble

Sequence: MGSDKIHHHHHHMINEQRLLNTFLELVQIDSETGNESTIQPILKEKFIALGLDVKEDEAAKHPKLGANNLVCTMNSTIEEGEVPKLYLTSHMDTVVPAINVKPIVKDDGYIYSDGTTILGADDKAGLAAMLEVLQVIKEQQIPHGQIQFVITVGEESGLIGAKELNSELLDADFGYAIDASADVGTTVVGAPTQMLISAKIIGKTAHASTPKEGVSAINIAAKAISRMKLGQVDEITTANIGKFHGGSATNIVADEVILEAEARSHDPERIKTQVKHMTDVFETTASELGGKAEVTVEQSYPGFKINDNEAVVKIAQESARNLGLSANTIISGGGSDGSIINTFGIPSVILGVGYEKIHTTNERMPIKSLNLLASQVLEIIKIVARQSK
- soluble on expression in E. coli: not soluble

Sequence: SNAMKQAIGFIDSGVGGLTVVREVLKQLPHEQVYYLGDTARCPYGPRDKEEVAKFTWEMTNFLVDRGIKMLVIACNTATAAALYDIREKLDIPVIGVIQPGSRAALKATRNNKIGVLGTLGTVESMAYPTALKGLNRRVEVDSLACPKFVSVVESGEYKSAIAKKVVAESLLPLKSTKIDTVILGCTHYPLLKPIIENFMGDGVAVINSGEETASEVSALLDYHNLLDATDEEIEHRFFTTGSTQIFKDIAKDWLNMPDMTVEHIKLGK
- soluble on expression in E. coli: soluble

Sequence: MANLKRYNDGLFKLDLWIRRLLTIGESNELYTALCDGVCDIVGAGTAVFTTIDMQAGTLTYMAASGGWNAMVKGLAVPMKSGNLCASVAACGTPLRIDQISSRTDSCELLQVMDMDAAVLVPVLEEGRVTACLSAFRVGNPFDQIDEQLLQQYAHTASMVLRTVRLMVDLR
- soluble on expression in E. coli: not soluble

Sequence: MQDLIKQYNTTLRQLREAQKDAKEEDVKVLTDMISDITYSLEWMKKARRPGNRRGVERLAAYQRERACDPLLMQRYFRSMDDNLYEWDNHQQEHSIGEWDKVRLEDALSLLTEREKEVYLMSRGYCLTYREIARYLDITCSTVQSMIERAEKKIARQVNESLFCNCG
- soluble on expression in E. coli: not soluble

Sequence: VPITPLLHESVARFAATGADITTRAEPDLFVSIDPDHLRRILTAVLDNAITHGDGEIAVTAHARDGAVDIGVRDHGPGFADHFLPVAFDRFTRADTARGGRGSGLGLAIVAALTTTHGGHANATNHPDGGAELRITLPTPRPPFHEELPRITSSDTKDPNREHDTSDQ
- soluble on expression in E. coli: not soluble

Sequence: MTIKLINIGFGNIISANRMISIVSPESAPIKRMIQDARDRGMLIDATYGRRTRAVVVMDSDHIILSAVQPETVAHRLSVKEEIMDEGQG
- soluble on expression in E. coli: not soluble

Sequence: MKTWLPTSTAGSLPKPSWLAQPETLWSPWKLSSEELLAGKRDALRLSLDDQLRAGIDIVSDGEQTRQHFVTTFIEHLSGVDFAKREIVKIRNRYEASVPTVVGAVERQKPVFVEDARYLRQLTSQPIKWALPGPMTMIDTLYDNHYKSREKLAWEFAKILNQEAKELEAAGVDIIQFDEPAFNVFFDEVNDWGIAALERATEGLKCETAVHICYGYGIKANTDWKKTLGSEWRQYEEAFPQLQKSSLDIISLECHNSRVPMDLLELIRGKKVMVGAIDVASHAIETPEEVAGTLRKALAFVDADKLYPSTNCGMAPLPRHVATGKLHALSAGAEIIRRELAAK
- soluble on expression in E. coli: not soluble
